In patent US20160279247A1, “CYCLIC PEPTIDE” (THE SECRETARY OF STATE FOR BUSINESS, INNOVATION & SKILLS OF …, published 2016):
Where no end group is shown, it is not given here.

Target: T1, D2 peptide (C-terminal amide ('am'))
T1 peptide: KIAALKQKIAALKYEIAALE
Test: CD spectroscopy, thermal denaturation of the equimolar mixture (100 uM in each peptide)
Protocol: CD spectra were recorded on an Applied Photosystem Chirascan spectropolarimetre fitted with a Peltier temperature controller. All measurements were taken in ellipticities in mdeg and after baseline correction were converted to mean residue ellipticity (MRE; deg cm² dmol res⁻¹) by normalising for the concentration of peptide bonds and cuvette pathlength. Aqueous peptide solutions (300 μL, 100 μM in each peptide unless stated otherwise) were prepared in filtered (0.22 μm) 10 mM MOPS or phosphate buffer, pH 7.4. To calculate the percent α-helix, the equation, −100([q]₂₂₂+3000)/33 000), was used.
Thermal denaturation curves (solid lines) and their first derivatives (dashed lines) for SaNet (FIG. 8a), D1-D2 (FIGS. 8b) and D1 (FIG. 8c); and CD spectra following the thermal unfolding of D1-D2 (FIGS. 8d) and D1 (FIG. 8e); 10° C. (dotted line) and 90° C. (dashed line) with intervening spectra recorded every 10° C. (solid lines).

Binder: EIAALEQEIAALEYKIAALK-NH2 [D1 peptide]
- transition midpoint of thermal unfolding of the D1+D2 mixture: ~55 ° C.
